Assay results published in patent publication EP4786497A1 (Astellas Pharma Inc., dated 2026).
Positions count from the first letter of the chain named.

T1: mouse MerTK-human Fc fusion protein (mouse; human, UniProt Q60805 19-497)
T1 construct: range 19-497; Made in ExpiCHO-S cells; also called protein of mouse MerTK fused with human Fc; not shown: human IgG1 Fc as encoded by the pFUSE-hIgG1-Fc1 vector (InvivoGen)
T1 sequence (looked up): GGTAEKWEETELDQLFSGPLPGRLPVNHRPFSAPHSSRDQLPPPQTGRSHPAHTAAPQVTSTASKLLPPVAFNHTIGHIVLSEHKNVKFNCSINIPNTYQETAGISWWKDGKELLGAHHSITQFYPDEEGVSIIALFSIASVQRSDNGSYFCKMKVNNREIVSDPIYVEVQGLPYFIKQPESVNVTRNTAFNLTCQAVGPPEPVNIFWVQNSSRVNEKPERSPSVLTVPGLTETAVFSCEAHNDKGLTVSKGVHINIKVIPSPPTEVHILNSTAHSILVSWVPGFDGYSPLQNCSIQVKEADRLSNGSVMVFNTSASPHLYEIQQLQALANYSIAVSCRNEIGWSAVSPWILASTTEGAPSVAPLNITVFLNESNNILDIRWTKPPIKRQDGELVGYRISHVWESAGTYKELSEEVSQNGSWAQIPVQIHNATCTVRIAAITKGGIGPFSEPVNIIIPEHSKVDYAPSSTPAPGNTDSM

T2: human MerTK-human Fc fusion protein (human, UniProt Q12866 21-505)
T2 construct: range 21-505; Made in ExpiCHO-S cells; also called human MerTK-Fc protein; MerTK-Fc fusion protein; not shown: human IgG1 Fc as encoded by the pFUSE-hIgG1-Fc1 vector (InvivoGen)
T2 sequence (looked up): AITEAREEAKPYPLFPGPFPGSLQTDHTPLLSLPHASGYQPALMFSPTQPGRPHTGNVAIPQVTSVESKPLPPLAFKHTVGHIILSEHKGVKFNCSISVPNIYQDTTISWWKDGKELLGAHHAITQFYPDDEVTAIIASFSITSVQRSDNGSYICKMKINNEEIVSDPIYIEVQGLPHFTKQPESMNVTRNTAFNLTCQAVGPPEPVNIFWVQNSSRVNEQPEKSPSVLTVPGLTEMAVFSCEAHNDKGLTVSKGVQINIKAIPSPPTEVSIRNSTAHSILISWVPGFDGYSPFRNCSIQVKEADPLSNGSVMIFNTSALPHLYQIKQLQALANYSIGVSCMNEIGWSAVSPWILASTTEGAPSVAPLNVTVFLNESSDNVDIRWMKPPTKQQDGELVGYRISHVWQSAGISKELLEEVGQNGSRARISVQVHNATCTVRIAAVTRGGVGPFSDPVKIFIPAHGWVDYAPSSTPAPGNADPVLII

T3: human MerTK-His protein (human, UniProt Q12866 21-505)
T3 construct: range 21-505; Made in ExpiCHO-S cells; also called protein of human MerTK fused with His tag
T3 sequence: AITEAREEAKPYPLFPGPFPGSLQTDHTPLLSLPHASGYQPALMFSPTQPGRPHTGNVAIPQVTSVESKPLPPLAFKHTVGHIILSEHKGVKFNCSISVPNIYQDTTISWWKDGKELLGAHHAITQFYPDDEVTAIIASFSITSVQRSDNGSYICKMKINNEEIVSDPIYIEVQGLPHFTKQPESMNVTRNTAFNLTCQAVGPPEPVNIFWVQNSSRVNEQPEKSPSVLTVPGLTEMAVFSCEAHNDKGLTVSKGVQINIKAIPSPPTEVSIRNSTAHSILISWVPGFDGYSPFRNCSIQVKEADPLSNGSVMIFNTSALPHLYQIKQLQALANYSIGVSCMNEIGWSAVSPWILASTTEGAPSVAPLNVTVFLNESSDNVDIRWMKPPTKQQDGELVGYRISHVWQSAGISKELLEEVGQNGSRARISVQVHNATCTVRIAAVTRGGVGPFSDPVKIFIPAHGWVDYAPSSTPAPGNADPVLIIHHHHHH

B1: tA3-20 (antibody, human IgG1, lambda, L234A L235A)
heavy: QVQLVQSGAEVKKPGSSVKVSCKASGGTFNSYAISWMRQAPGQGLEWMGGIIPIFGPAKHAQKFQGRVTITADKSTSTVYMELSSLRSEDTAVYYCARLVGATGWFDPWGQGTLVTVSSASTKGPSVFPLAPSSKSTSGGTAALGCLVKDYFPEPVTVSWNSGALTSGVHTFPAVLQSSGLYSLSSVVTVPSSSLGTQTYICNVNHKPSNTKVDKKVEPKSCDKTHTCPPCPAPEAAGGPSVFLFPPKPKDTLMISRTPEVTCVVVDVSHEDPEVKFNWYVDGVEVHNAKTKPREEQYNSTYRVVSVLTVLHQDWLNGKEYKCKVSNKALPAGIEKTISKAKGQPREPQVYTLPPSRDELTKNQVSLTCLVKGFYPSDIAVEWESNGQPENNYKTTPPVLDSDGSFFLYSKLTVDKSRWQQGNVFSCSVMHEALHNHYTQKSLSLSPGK
light: FMLTQPHSVSESPGKTVNISCTRSSGSIATNYVQWYQQRPGSSPTTVIYEDNQRPSGVPDRFSGSIDSSSNSASLTISGLKTEDEAVYHCQSYDSSNVVFGGGTKLTVLGQPKAAPSVTLFPPSSEELQANKATLVCLISDFYPGAVTVAWKADSSPVKAGVETTTPSKQSNNKYAASSYLSLTPEQWKSHRSYSCQVTHEGSTVEKTVAPTECS
notes: human lambda constant region; also called fully human anti-MerTK antibody; anti-MerTK agonist antibody tA3-20
B2: tA3-20.2 (antibody, human IgG1, lambda, L234A L235A)
heavy: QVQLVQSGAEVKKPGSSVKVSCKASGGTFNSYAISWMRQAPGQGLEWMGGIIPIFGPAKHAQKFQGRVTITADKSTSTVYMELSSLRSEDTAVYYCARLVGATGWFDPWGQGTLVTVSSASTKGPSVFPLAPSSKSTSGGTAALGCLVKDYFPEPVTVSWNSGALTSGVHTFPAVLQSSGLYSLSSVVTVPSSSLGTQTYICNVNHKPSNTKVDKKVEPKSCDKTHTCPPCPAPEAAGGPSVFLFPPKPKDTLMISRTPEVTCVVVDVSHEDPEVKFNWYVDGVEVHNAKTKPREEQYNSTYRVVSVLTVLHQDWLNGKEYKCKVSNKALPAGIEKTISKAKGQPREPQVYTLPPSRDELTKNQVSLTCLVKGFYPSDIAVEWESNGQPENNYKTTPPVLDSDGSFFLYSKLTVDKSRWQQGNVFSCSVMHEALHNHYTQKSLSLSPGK
light: B1 light with N18S
B3: tA3-20.1 (antibody, human IgG1, lambda, L234A L235A)
heavy: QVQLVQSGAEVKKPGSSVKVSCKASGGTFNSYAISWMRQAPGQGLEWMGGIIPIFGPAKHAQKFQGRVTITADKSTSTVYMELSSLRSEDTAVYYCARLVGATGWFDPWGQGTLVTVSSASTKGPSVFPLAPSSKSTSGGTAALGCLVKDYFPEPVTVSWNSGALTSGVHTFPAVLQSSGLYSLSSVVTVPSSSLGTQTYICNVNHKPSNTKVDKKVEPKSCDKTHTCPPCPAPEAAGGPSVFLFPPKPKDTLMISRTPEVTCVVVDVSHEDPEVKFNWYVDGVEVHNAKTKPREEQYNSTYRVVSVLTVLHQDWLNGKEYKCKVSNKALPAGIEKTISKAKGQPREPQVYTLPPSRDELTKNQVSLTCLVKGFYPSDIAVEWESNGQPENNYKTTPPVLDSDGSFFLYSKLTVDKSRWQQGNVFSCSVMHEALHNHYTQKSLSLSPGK
light: B1 light with N18T
B4: tA3-20.3 (antibody, human IgG1, lambda, L234A L235A)
heavy: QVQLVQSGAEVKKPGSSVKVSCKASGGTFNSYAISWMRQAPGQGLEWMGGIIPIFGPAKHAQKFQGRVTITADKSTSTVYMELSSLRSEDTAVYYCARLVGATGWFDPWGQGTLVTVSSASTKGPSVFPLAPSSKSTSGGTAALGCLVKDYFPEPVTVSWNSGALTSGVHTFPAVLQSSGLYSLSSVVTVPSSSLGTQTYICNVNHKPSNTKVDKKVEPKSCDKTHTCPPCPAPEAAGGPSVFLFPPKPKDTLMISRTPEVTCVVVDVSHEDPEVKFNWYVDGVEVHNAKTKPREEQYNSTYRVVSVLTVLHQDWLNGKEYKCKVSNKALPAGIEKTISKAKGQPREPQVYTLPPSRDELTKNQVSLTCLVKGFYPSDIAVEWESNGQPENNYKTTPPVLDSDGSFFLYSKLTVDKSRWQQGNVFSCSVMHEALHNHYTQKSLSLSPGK
light: NFMLTQPHSVSESPGKTVNISCTRSSGSIATNYVQWYQQRPGSSPTTVIYEDNQRPSGVPDRFSGSIDSSSNSASLTISGLKTEDEAVYHCQSYDSSNVVFGGGTKLTVLGQPKAAPSVTLFPPSSEELQANKATLVCLISDFYPGAVTVAWKADSSPVKAGVETTTPSKQSNNKYAASSYLSLTPEQWKSHRSYSCQVTHEGSTVEKTVAPTECS
B5: tA3-20.5 (antibody, human IgG1, lambda, L234A L235A)
heavy: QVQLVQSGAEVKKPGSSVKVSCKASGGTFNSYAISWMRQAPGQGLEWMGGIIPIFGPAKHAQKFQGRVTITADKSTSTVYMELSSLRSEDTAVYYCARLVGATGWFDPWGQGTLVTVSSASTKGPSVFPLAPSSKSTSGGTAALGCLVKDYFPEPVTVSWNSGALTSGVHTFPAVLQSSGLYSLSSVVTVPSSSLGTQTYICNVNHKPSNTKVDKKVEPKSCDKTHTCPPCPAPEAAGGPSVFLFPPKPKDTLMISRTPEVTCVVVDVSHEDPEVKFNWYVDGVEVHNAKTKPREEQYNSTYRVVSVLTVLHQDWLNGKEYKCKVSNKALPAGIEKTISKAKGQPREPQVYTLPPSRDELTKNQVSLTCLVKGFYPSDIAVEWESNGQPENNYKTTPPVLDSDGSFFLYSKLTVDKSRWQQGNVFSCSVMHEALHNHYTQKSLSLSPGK
light: B4 light with N19S
B6: tA3-20.4 (antibody, human IgG1, lambda, L234A L235A)
heavy: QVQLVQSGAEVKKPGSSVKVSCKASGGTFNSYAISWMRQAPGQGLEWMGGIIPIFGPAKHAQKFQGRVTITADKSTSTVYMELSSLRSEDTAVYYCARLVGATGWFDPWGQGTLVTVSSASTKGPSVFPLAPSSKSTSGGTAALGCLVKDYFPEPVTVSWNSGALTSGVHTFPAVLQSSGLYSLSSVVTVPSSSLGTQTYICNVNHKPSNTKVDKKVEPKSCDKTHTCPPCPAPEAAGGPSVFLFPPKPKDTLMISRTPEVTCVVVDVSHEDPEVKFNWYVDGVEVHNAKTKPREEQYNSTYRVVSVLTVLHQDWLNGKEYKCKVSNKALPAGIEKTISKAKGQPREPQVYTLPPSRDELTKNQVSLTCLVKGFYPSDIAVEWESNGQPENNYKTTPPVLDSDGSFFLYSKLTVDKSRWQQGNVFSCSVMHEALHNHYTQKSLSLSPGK
light: B4 light with N19T
B7: tA-009 (bispecific antibody, mouse IgG2a)
heavy: QVQLVQSGAEVKKPGSSVKVSCKASGGTFNSYAISWMRQAPGQGLEWMGGIIPIFGPAKHAQKFQGRVTITADKSTSTVYMELSSLRSEDTAVYYCARLVGATGWFDPWGQGTLVTVSSAKTTAPSVYPLAPVCGDTTGSSVTLGCLVKGYFPEPVTLTWNSGSLSSGVHTFPAVLQSDLYTLSSSVTVTSSTWPSQSITCNVAHPASSTKVDKKIEPRGPTIKPCPPCKCPAPNAAGGPSVFIFPPKIKDVLMISLSPIVTCVVVDVSEDDPDVQISWFVNNVEVHTAQTQTHREDYNSTLRVVSALPIQHQDWMSGKEFKCKVNNKDLAAPIERTISKPKGSVRAPQVYVLPPPEKEMTKKQVSLTCLVKDFMPEDIYVEWTNNGKTELNYKNTEPVLKSDGSYFMYSKLTVEKKNWVERNSYSCSVVHEGLHNHHTTKSFSRTPGK
light: NFMLTQPHSVSESPGKTVNISCTRSSGSIATNYVQWYQQRPGSSPTTVIYEDNQRPSGVPDRFSGSIDSSSNSASLTISGLKTEDEAVYHCQSYDSSNVVFGGGTKLTVLGQPKSSPSVTLFPPSSEELETNKATLVCTITDFYPGVVTVDWKVDGTPVTQGMETTQPSKQSNNKYMASSYLTLTARAWERHSSYSCQVTHEGHTVEKSLSRADCS
chain: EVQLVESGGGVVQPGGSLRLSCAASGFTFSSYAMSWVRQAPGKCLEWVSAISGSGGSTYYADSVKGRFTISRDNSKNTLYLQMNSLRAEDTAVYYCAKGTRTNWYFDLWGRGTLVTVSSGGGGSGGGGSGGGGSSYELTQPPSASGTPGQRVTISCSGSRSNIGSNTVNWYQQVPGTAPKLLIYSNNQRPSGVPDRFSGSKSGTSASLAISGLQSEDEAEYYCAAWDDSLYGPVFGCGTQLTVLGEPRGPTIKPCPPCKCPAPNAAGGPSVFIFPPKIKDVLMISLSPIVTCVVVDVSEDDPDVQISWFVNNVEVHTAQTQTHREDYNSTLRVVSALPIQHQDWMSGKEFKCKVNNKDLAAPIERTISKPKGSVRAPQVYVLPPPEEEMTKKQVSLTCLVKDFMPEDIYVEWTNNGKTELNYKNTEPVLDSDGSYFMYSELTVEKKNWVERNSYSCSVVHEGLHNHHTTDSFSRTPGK
notes: also called mouse-type anti-MerTK-anti-TTR bispecific antibody

Tests used:
[1] = biological target: T1, mouse MerTK-human Fc fusion protein; assay: ELISA, MerTK protein immobilized at 1 µg/mL
[2] = biological target: T2, human MerTK-human Fc fusion protein; assay: ELISA, MerTK protein immobilized at 1 µg/mL
human MerTK-His protein [3] = biological target: T3, human MerTK-His protein; assay: ELISA, human MerTK-His immobilized at 1 µg/mL
human MerTK-His protein [4] = biological target: T3, human MerTK-His protein; assay: ELISA, human MerTK-His immobilized, same method
[5] = biological target: misfolding-treated recombinant human TTR V30M protein (human, UniProt P02766 21-147); assay: ELISA, misTTR immobilized at 2 µg/mL
[6] = biological target: T2, human MerTK-human Fc fusion protein; assay: ELISA, human MerTK-Fc immobilized at 1 µg/mL

| Binder | binding result (human MerTK-His protein [3]) | binding result (human MerTK-His protein [4]) | also measured |
| --- | --- | --- | --- |
| B1 | binds | – | binding result [1]: binds; binding result [2]: binds |
| B2 | binds | – | – |
| B3 | binds | – | – |
| B4 | – | binds | – |
| B5 | – | binds | – |
| B6 | – | binds | – |
| B7 | – | – | binding result [5]: binds; binding result [6]: binds |
